Reference: PMC2923608, “Structural Insights into the Quinolone Resistance Mechanism of Mycobacterium tuberculosis DNA Gyrase” (PLoS ONE, 2010)

Assays:
[1] = target: the molecule itself; experiment: AUC; sedimentation velocity, 20°C, 42000 rpm, 20 mM Tris pH 8; TopBK at 0.5, 1 and 4 mg/ml (18, 37 and 148 µM); the result is told for the concentration corresponding to the crystallization conditions; monomer and dimer
[2] = target: the molecule itself; experiment: AUC; sedimentation velocity, 20°C, 42000 rpm, 20 mM Tris pH 8; GA57BK at 1 mg/ml (17.5 µM)

B1: Toprim domain of DNA gyrase subunit B from Mycobacterium tuberculosis (TopBK) (domain or fragment)
chain: TDPRKSELYVVEGDSAGGSAKSGRDSMFQAILPLRGKIINVEKARIDRVLKNTEVQAIITALGTGIHDEFDIGKLRYHKIVLMADADVDGQHISTLLLTLLFRFMRPLIENGHVFLAQPPLYKLKWQRSDPEFAYSDRERDGLLEAGLKAGKKINKEDGIQRYKGLGEMDAKELWETTMDPSVRVLRQVTLDDAAAADELFSILMGEDVDARRSFITRNAKDVRFLDV
notes: DNA gyrase subunit B (GyrB), Mycobacterium tuberculosis, Toprim domain; the methods give residues 448-675, the results give 448-654 (the crystal model runs from T448 to E654); also called C-terminal GyrB domain
Q: Which “stoichiometry N” value [1] does the source give for B1 here?
A: 2

B2: breakage-reunion domain of DNA gyrase subunit A from M. tuberculosis (GA57BK) (domain or fragment)
chain: MTDTTLPPDDSLDRIEPVDIEQEMQRSYIDYAMSVIVGRALPEVRDGLKPVHRRVLYAMFDSGFRPDRSHAKSARSVAETMGNYHPHGDASIYDSLVRMAQPWSLRYPLVDGQGNFGSPGNDPPAAMRYTEARLTPLAMEMLREIDEETVDFIPNYDGRVQEPTVLPSRFPNLLANGSGGIAVGMATNIPPHNLRELADAVFWALENHDADEEETLAAVMGRVKGPDFPTAGLIVGSQGTADAYKTGRGSIRMRGVVEVEEDSRGRTSLVITELPYQVNHDNFITSIAEQVRDGKLAGISNIEDQSSDRVGLRIVIEIKRDAVAKVVINNLYKHTQLQTSFGANMLAIVDGVPRTLRLDQLIRYYVDHQLDVIVRRTTYRLRKANERAHILRGLVKALDALDEVIALIRASETVDIARAGLIELLDIDEIQAQAILDMQLRRLAALERQRIIDDLAKIEAEIADLEDILAKPERQRGIVRDELAEIVDRHGDDRRTRIIAAD
notes: DNA gyrase subunit A (GyrA), Mycobacterium tuberculosis, breakage-reunion domain, residues 1-502, 57 kDa; also called entire N-terminal GyrA domain
Q: B2 was tested. Which “stoichiometry N” value [2] did it give?
A: 2
